In paper PMC8229658 (Viruses, 2021):

Molecular target: T1, Flag-tagged human RuvBL2 (recombinant) (human, UniProt Q9Y230 1-463)
T1 construct: also called Flag-RuvBL2
Test: pull-down
Conditions: both partners purified

T1 sequence (Q9Y230 whole entry): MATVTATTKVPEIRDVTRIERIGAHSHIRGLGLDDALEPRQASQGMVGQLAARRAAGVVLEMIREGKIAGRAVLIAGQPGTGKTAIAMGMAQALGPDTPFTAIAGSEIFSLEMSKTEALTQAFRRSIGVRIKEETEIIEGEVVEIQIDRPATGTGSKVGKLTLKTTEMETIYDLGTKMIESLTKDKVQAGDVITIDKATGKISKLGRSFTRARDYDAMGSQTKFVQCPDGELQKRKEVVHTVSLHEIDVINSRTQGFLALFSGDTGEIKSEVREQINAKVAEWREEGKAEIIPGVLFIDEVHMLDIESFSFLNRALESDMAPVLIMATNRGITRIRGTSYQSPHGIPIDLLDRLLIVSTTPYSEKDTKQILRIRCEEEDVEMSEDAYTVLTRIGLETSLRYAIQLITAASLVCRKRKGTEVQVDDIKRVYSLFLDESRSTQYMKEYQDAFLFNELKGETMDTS

B1: GST-tagged RBD (amino acids 1-73) of the NS1 of PR8 virus (domain or fragment)
chain: MDPNTVSSFQVDCFLWHVRKRVADQELGDAPFLDRLRRDQKSLRGRGSTLGLDIETATRAGKQIVERILKEES
notes: also called GST-RBD
  binding result: binds
